Results: the DeepSol protein solubility set

Assay: soluble on expression in E. coli; label from the status in PepcDB or PDB records

Sequence | soluble on expression in E. coli
MLNSWPLAKDLQVLVEIVHSGSFSAAAATLGQTPAFVTKRIQILENTLATTLLNRSARGVALTESGQRCYEHALEILTQYQRLVDDVTQIKTRPEGMIRIGCSFGFGRSHIAPAITELMRNYPELQVHFELFDRQIDLVQDNIDLDIRINDEIPDYYIAHLLTKNKRILCAAPEYLQKYPQPQSLQELSRHDCLVTKERDMTHGIWELGNGQEKKSVKVSGHLSSNSGEIVLQWALEGKGIMLRSEWDVLPFLESGKLVQVLPEYAQSANIWAVYREPLYRSMKLRVCVEFLAAWCQQRLGKPDEGYQVM | soluble
MLNVGATAPDFTLRDQNQQLVTLRGYRGAKNVLLVFFPLAFTGICQGELDQLRDHLPEFENDDSAALAISVGPPPTHKIWATQSGFTFPLLSDFWPHGAVSQAYGVFNEQAGIANRGTFVVDRSGIIRFAEMKQPGEVRDQRLWTDALAALTA | soluble
MLPAVPPQQWALSAGNGSSEVEVVPFQEVWGRSYCRALERLVDVVSEYPSEVEHMFSPSCVSLLRCTGCCGDENLHCVPVETANVTMQLLKIRSGDRPSYVELTFSQHVRCECRPLREKMKPERCGDAVPRR | soluble
MLPEEHLMLRQAVILVGGLGTRLGERTKARPKPMLEIGGRPFLDTLIDELDRYQIFDEILLLAGHKAEIVETHYAGATRGRAKIVVSRETEPLGTGGALVHAAPLLDQHFLLLNGDSLFDFNLLDLIARAQGGRVHMALRDGVVGDRYGRVVLDGDIVRDFIAPGAGATGPVNAGIYVVDKSIIAEIAKLPASLEQDVFPGLVRSGELRGTAYRGYFIDIGIPDDFARADRELREKLQRPAVFFDRDGVLNHDSGYTFETHKLEWIEGAREAVKAVNDAGYFAFVITNQSGVARGYYEEHHVLALHRWMADQMALIGAHIDAFEYCPDHPDGTVARYCRISDRRKPAPGMITDLAQRFSVDMTRSMVVGDKDSDMAAAQAAGLAGHMFEGGNLEAFVKQRLKPADKGLEHHHHHH | not soluble
MLPEHLVSSHFRLSSPPPEATENSKNLPKGKTKLSDYEPDILISANAAGQHRNVLFEERDRHIKERLYCVAKIETFARLINALQAEGDIDAQTLSKILADKTAMINEKGNAIWLNLITRETDMPLFYSLEDKDERS | not soluble
MLPEIWKHDSPYFRPEGDTRGEAVLPIGMPMRQQYDFSSSRKNPYAAKLKKPVTIRLDEESISYFKSMSEETGIPYQSLINLYLKECAASGKRLNLSWK | not soluble
MLPLIYHSIYSRLELPEGHRYPIMKYQYLYEEVRRDVQAEWVQFFEPQALSIEAIKRVHDADYVDLLAQGNMPAAKMRRIGFPWSEALITRTLTSAAG | not soluble
MLPPGMVAAESDFYLRRLWGLPHEDLKSEPRYLATFTVGINQKANIDACVKKFSENFTIVLFHYDGRVTEWDEFEWSKTAIHISVRKQTKWWYAKRFLHPDIVARYDYIFVWDEDLGVEHFNAEEYVKMVKKHGLEISQPGLEPNQGLTWQMTKRRGDMEVHKITEERPGWCSDPHLPPCAAYVEIMAPVFSRNAWRCVWHVIQNDLVHGWGLDFALRRCVEPAHEKIGVVDSQWVVHQSFPSLGNQGEATDGKAPWQGVRDRCKKEWTMFQSRMANAEKDYFKSLQVEGSSNSTATTI | soluble
MLQGDITMRYNSLNSYLKEKFGCKIYKLALSGGLSCPNRDGTISTGGCIFCSNGGSGDFAADKMLSITEQIESAKNRVSAKIKNGKYIAYFQSFTNTYGDIDYLRSIFTEAINHPDIVALSIGTRPDCLPDEVLNLLGELNKIKPVWVELGLQTIHENTAKYINRGYTLDVFNTAVNNLNKINVDVIVHLIIGLPFESKEDILESVKYVSSMNISGIKLQLLHVLKNTPLEKEYSLNKFEVLSMEEYVNIIAECLRYIPKSIVIHRLTGDGPKSILVAPLWSGNKKAVLNYMNKRFNELNVIQGSLCS | not soluble
MLQHKILGLDVGSRTVGIAISDIMGWTAQGLDTLRINEENNELGIDQLVDIIKKHNVGTVVIGLPKNMNNSIGFRGEASLTYKEKLLEAYPSIEIVMWDERLSTMAAERSLLEADVSRQKRKQVIDKMAAVFILQGYLDSLHLEHHHHHH | soluble
MLQVRVKPGVEDRIRGFFPWVYRSEIASFSRKPKKGEIVVVRDVNGKFLGYGYINPEVNIAIRILSFDKNEPVTPELIRKRIKQAYEYRKRLYINSNAYRLVHSEGDLLPGLIVDVYGSYLAVEFTTYGMNQFREVILDTLVELLRPKGIYEKVNEIAKRVEGLDVEERVIYGEVPEEVIIWEHDLKYYINIPQGQKTGFFLDQRNARKFVRNLVEPGDRCLDVFCHTGGFALNMKRAGAGEVIGVDISELALKEAEKNARLNGFTDIKWVKANAFDYLRELDKKGEKFDVIIIDPPSFAKNRAAVPNALRGYKELCVRGLKIAKSGGYLAIFSCSFHITEQHLLDVLLQASYDVRRQVRVIAKTFQDLDHPWILQMPNTLYLKGVWVEVV | soluble
MLREVVHRFGESDFTFLSVLDSYALLDRIDPAAFVKDEQMPYWAEIWPAAVTLSRQIVETGELAGKSVLELGAGVGMASIAAARSGARVLCTDYSTEALRFVAYNAMKNRVPLDTARLDWRMVKGAEKFDAVIAADVLYERVNLLPIVTAIDALLAPGGAAYIADPRRRLADQFLELVHENGFEVAETRMFDAEGDQTVAVTIYKLQRLKALEHHHHHH | not soluble
MLRPYVAEWFRSTYGSFTEPQRQAIPLVKQGKSVLITSPTGTGKTLAAFLGVIDEILFLMENRWEEKGILAVYVSPLRALNNDIRRNLEEPLRGIEEKAREMGLEPPRVKVAVRTSDTTPYEKQKMVKDPPHILITTPESLAAALAAPKFRERLSTVKWVVLDEIHELASNKRGAHLMVSVERLEELVREAGGKPLRRIGLSATIAPLDVVANFLGGFDDEGRPREVHIVDARFAKPIDIKVITPDVDLLRDPPDKINEAIYRKIAELVKQHRTTLIFTNTRSATERVVHKLKQILVKEGIASEDQIEAHHSSLSRNLRLDVEERLKRGELKVVVSSTSLELGIDIGYIDLVILLSSPKSVSRLLQRVGRAGHRIRDVSKGRLIVVDRDDLVECSVLADCAMKKFIDRVRIPMKPLDVLAQHIVGMSIEKKWRLEDAYRVVKRAYNFKDLSFEEFMSVVRFLAGKHGLEGEGVYSKIWLDEEEGLFGRKKSARMIYLLNVGVIPDETKIRVYTRDGKYVGDLEEEFVEILVPGDVFVLGGRTYRFLKSEGLRVIVERADDARPTVPSWFSEMLPLSFDSALKVGEFRRVFSALASSNPRAAVEKLVKEYYLEERAAATIVEYILEQLGYIGVVPSDKLVLIEYFPYEDGWGIVFHTLFGRRVNDALSRAYAVALSRRIGLPVRVAVTDNGFMLTVSEAGKPDASLLEKLIRDVTPENIRGILEEAISRTELMKRRFKHVAARMFIVLRRYKGKEVSPERLQLNSQKLLEVFLEEMKDSPPIRETFREILEDYMDIGAAGKVLEWIRKGEIEIVIKGPLPYPSPMAHSIVVRGYSDVVLMEDRRKMLMILREKVLEYIRKGRAAPTWVGGDGKGRLLKEEQ | soluble
MLRQLTFLFPTKFHRGKKLRTQRYRGLQSKEKKKLSLLTTKFSDEAWGDNHKNKVVYRAQDRFHNPLFIVLMVVKKKLDHKKLIDNNSHYHVCI | not soluble
MLSAAAFAADKVVKLPKPNLNRTGTVMKALSERQSTREYASKALTLADLSDLLWAANGINRSDAGKRTAPSAMNKQDVDVYVILSEGSYLYDAKNHQLNLIAEGDYRGAVAGGQAFVKTAPVSLVLISDVSRFGDAQKIQNQLMGAMDAGIVSQNISIFCSAAKLATVPRASMDAAQLKKVLKLKDSQIPMMNHPVGYFK | not soluble
MLSCELYRMSTYSTFPAGVPVSERSLARAGFYYTGVNDKVKCFCCGLMLDNWKRGDSPTEKHKKLYPSCRFVQSL | soluble
MLSDITIHNLGVIPSASLELSEGLTVLTGETGAGKTMVVTGLRLLAGGRAEAQRVRSGSSQAVVEGRFLLDSVAPESAEMARAVVSAAGGALDENGEVIVSRTVSAHGRSRAHLGGRSVPAASLVEFSKEVLTIHGQNDQLRLLNSDRQRDALDRFSQKISALMTVYSEAYRAWKNLSKDLQERQASKRELAQEVDRLEFAIREISEVDPQPGEEADLLVQIARLQDVDDLRAQAVGALSVIDGAAGVEGYATCDSSDADAASDLIGQALSSVRVSSDPTLQGVSQQLEAVTSILMEVSAQLGGFLDELPADPQMLDKLLQRQQALKQLTRKYASDIDGVIKWKLKAEQKLESIDVSPEALDQLKKETALAERKMNDAGMALRAARIEAAQELSNAVTKELHGLAMPKAMFSVVVHPTEPQPSGFDEVEFCLAPNNATDPRPLASSASGGELSRVMLALEVILSAGQHGNTLVFDEVDAGVGGRAAVEIGRRLARLAQNNQVIVVTHLPQVAAYADTHLHVAKDVGESTVTSGVEKLSEQRRVEDLARMLAGLEDTDTGRAHAKELFEKAQAENRAFRV | not soluble
MLSEWQNHKAQLRNYVYKRVDDASAVDDILQDVYIKASSNLHQLKSKGSLKGWLYKIAYNTIMDFYRDKLPYDELPEDLVAEDEDAVEESRKEIAECMRPLIDELPDKYSVPLRLAELDGIPQQEIADKLGLSLSGAKSRIQRGRVKFRENLMTCCDFEINDGGMVTGYTPKKTNCSSPKR | not soluble
MLSFEQSYAPSRNMKLLLVEPSGSYFNDSCCSEPNSPDSGFSSDDSISSDASFAERLTRSKTLPSALRRSRSKQSVKRVRFADSLGLDLENLQYFVKEDLHLQKFNIHFSTPSSSTPPPQLPHFPKQLINQPAPRLVLHNFPYRSEQEYQVKTRDSRVCVAALRASGSSIVGQVNLLNVAFDKVVVVRYTIDGWATQDEIVASYSHRLFDTEDIDAFNFTIAIPVKLSEGKCEFCVQYQVAGAEFWDNNGGDNYIVNVSTKGPSSPFTRCYGASTGLPDAPRGSTRRQQQRRWGRALEESDEETPYVSSAPRRGAHFH | not soluble
MLSFPRPHSLVEGVVSAIRREIVSGRLPAESKMPTEHELADQFSVSRSVVREAISQLKADGVLVIRRGSGSFVSQTPGGTVFRLPGNEDHSAGLAKLFELRSWIEIQVASVAAQRHTDADLKRLSDAMLLMESNAGNFEISSKADCEFHCAIVAACKNEYLTAFHDFLGSQLIQARFMAWENSSKLEIGPSGAIREHREIFDAIAKRNPSEAAHCARMHLKAAALRLNIDLAD | not soluble
MLSIHDPLLIFTDLDGTLLNSHTFEWQPAAPWLTRLHESGVPVILCSSKTAAEMLQLQTTLNLQGLPLIAENGAVIQLDVHWEDHPNYPRLIAGISHNEIRLVLHKLREKEQFKFTTFDDVDDQVISEWTGLNRAQSALTRLHEASVSLIWRDSDERMAQFVARLNDLGLQFVHGARFWHVLDASAGKDQAANWLIEAYRRQWRARPLTLGLGDGPNDAPLLDVMDYAVVVKGLNREGVHLRNDDPQRVYRSQNEGPDGWREGMDYFFSRSLEHHHHHH | soluble
MLSKKRSMSFAKRTLLSVSLSLVSGLSFAKMYELPEDGSRLIGRLENHVVQQGETMANIAKHYDVGMLALMAANKGVDPFLPQEGRVLTIPSQLILPEVPHQGIVINLAELRLYYFPEGEDVVHVFPVGIGRIGRDTPVMTTSISQKRPNPTWTPPASIRAEYRAKGVDLPAVVPAGPDNPLGLFALRLAYGNGEYLIHGTNKDFGIGMRVSAGCIRMDPSDIEWLFDKVRRGEKVNIINQPVKVSLEPDRSVFVEAHEPLTRSNGEKDHLQVPKELGWWLNEFGLTNVKAKAVIAAQNGVPVEITAP | not soluble
MLSNMLDVNLEKMERFAAKVWRKYGKEDPLAQLSFNEYDYLKVIQSAPQAIRLTDLALALEVSKPSASNMLKRLERRGLVKRVQCQSDARSQLFELTEQAELHLASEAKVYQILAEQVAQNLSSEEAMMLDLLLGKALR | not soluble
